Data as given in publication PMC12416549 (2024).
Changes are numbered by the printed parent chain. Names may count otherwise.

Target: T1, TNFR1 (Homo sapiens, UniProt P19438)
T1 chain: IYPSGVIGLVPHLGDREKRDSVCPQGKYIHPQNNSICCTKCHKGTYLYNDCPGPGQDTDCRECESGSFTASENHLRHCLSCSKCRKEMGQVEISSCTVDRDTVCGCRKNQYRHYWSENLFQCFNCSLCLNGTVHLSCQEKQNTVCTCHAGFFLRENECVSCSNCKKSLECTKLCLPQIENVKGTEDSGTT
Test: yeast display SC50

B1: I49V (designed binder)
chain: MTLQELLREEALRRAEAEAFRYALELLAEKFPEQKEYLLDLAEEIESQVRSLSGVDVEDVRKFLDKEWAWVKELLAEHPAELAEVEAARAARLAELRAEVEAKVAA
- apparent Kd (screen): 2.05 nM

B2: E77S (designed binder)
chain: B1 chain with V49I, E77S
- apparent Kd (screen): 1.05 nM

B3: S47W (designed binder)
chain: B1 chain with S47W, V49I
- apparent Kd (screen): 0.277 nM

B4: K35D (designed binder)
chain: B1 chain with K35D, V49I
- apparent Kd (screen): 1.27 nM

B5: E43C (designed binder)
chain: B1 chain with E43C, V49I
- apparent Kd (screen): 0.405 nM

B6: R8L (designed binder)
chain: B1 chain with R8L, V49I
- apparent Kd (screen): 0.869 nM

B7: A19R (designed binder)
chain: B1 chain with A19R, V49I
- apparent Kd (screen): 3.99 nM

B8: R13W (designed binder)
chain: B1 chain with R13W, V49I
- apparent Kd (screen): 0.252 nM

B9: E67L (designed binder)
chain: B1 chain with V49I, E67L
- apparent Kd (screen): 10.4 nM

B10: F31K (designed binder)
chain: B1 chain with F31K, V49I
- apparent Kd (screen): 1.16 nM

B11: A23Q (designed binder)
chain: B1 chain with A23Q, V49I
- apparent Kd (screen): 0.539 nM

B12: L6P (designed binder)
chain: B1 chain with L6P, V49I
- apparent Kd (screen): 4.39 nM

B13: E84G (designed binder)
chain: B1 chain with V49I, E84G
- apparent Kd (screen): 0.539 nM

B14: E81L (designed binder)
chain: B1 chain with V49I, E81L
- apparent Kd (screen): 0.653 nM

B15: D40T (designed binder)
chain: B1 chain with D40T, V49I
- apparent Kd (screen): 3 nM

B16: E77N (designed binder)
chain: B1 chain with V49I, E77N
- apparent Kd (screen): 0.49 nM

B17: E33M (designed binder)
chain: B1 chain with E33M, V49I
- apparent Kd (screen): 0.49 nM

B18: R13E (designed binder)
chain: B1 chain with R13E, V49I
- apparent Kd (screen): 0.405 nM

B19: E43N (designed binder)
chain: B1 chain with E43N, V49I
- apparent Kd (screen): 0.446 nM

B20: L26I (designed binder)
chain: B1 chain with L26I, V49I
- apparent Kd (screen): 0.653 nM

B21: L6Q (designed binder)
chain: B1 chain with L6Q, V49I
- apparent Kd (screen): 4.83 nM

B22: A23Y (designed binder)
chain: B1 chain with A23Y, V49I
- apparent Kd (screen): 1.4 nM

B23: L27D (designed binder)
chain: B1 chain with L27D, V49I
- apparent Kd (screen): 0.142 nM

B24: A15M (designed binder)
chain: B1 chain with A15M, V49I
- apparent Kd (screen): 0.653 nM

B25: L82Q (designed binder)
chain: B1 chain with V49I, L82Q
- apparent Kd (screen): 0.956 nM

B26: W70G (designed binder)
chain: B1 chain with V49I, W70G
- apparent Kd (screen): 16.7 nM

B27: Q4C (designed binder)
chain: B1 chain with Q4C, V49I
- apparent Kd (screen): 0.539 nM

B28: A23F (designed binder)
chain: B1 chain with A23F, V49I
- apparent Kd (screen): 1.16 nM

B29: A105L (designed binder)
chain: B1 chain with V49I, A105L
- apparent Kd (screen): 0.653 nM

B30: D65F (designed binder)
chain: B1 chain with V49I, D65F
- apparent Kd (screen): 0.653 nM

B31: D40R (designed binder)
chain: B1 chain with D40R, V49I
- apparent Kd (screen): 12.5 nM

B32: V100M (designed binder)
chain: B1 chain with V49I, V100M
- apparent Kd (screen): 0.49 nM

B33: A17L (designed binder)
chain: B1 chain with A17L, V49I
- apparent Kd (screen): 0.277 nM

B34: G54I (designed binder)
chain: B1 chain with V49I, G54I
- apparent Kd (screen): 2.48 nM

B35: R61N (designed binder)
chain: B1 chain with V49I, R61N
- apparent Kd (screen): 1.86 nM

B36: Y22S (designed binder)
chain: B1 chain with Y22S, V49I
- apparent Kd (screen): 0.79 nM

B37: L93K (designed binder)
chain: B1 chain with V49I, L93K
- apparent Kd (screen): 0.718 nM

B38: A91I (designed binder)
chain: B1 chain with V49I, A91I
- apparent Kd (screen): 0.956 nM

B39: E84M (designed binder)
chain: B1 chain with V49I, E84M
- apparent Kd (screen): 0.956 nM

B40: V104H (designed binder)
chain: B1 chain with V49I, V104H
- apparent Kd (screen): 1.16 nM

B41: E58L (designed binder)
chain: B1 chain with V49I, E58L
- apparent Kd (screen): 0.446 nM

B42: H78F (designed binder)
chain: B1 chain with V49I, H78F
- apparent Kd (screen): 0.446 nM

B43: V104A (designed binder)
chain: B1 chain with V49I, V104A
- apparent Kd (screen): 0.653 nM

B44: R89M (designed binder)
chain: B1 chain with V49I, R89M
- apparent Kd (screen): 0.869 nM

B45: A80R (designed binder)
chain: B1 chain with V49I, A80R
- apparent Kd (screen): 0.593 nM

B46: A83Y (designed binder)
chain: B1 chain with V49I, A83Y
- apparent Kd (screen): 0.718 nM

B47: I45G (designed binder)
chain: B1 chain with I45G, V49I
- apparent Kd (screen): 8.56 nM

B48: R14G (designed binder)
chain: B1 chain with R14G, V49I
- apparent Kd (screen): 0.539 nM

B49: E58I (designed binder)
chain: B1 chain with V49I, E58I
- apparent Kd (screen): 0.593 nM

B50: Y22K (designed binder)
chain: B1 chain with Y22K, V49I
- apparent Kd (screen): 0.49 nM

B51: A88F (designed binder)
chain: B1 chain with V49I, A88F
- apparent Kd (screen): 0.718 nM

B52: E101P (designed binder)
chain: B1 chain with V49I, E101P
- apparent Kd (screen): 0.446 nM

B53: E29K (designed binder)
chain: B1 chain with E29K, V49I
- apparent Kd (screen): 0.49 nM

B54: R13G (designed binder)
chain: B1 chain with R13G, V49I
- apparent Kd (screen): 0.252 nM

B55: A19T (designed binder)
chain: B1 chain with A19T, V49I
- apparent Kd (screen): 0.718 nM

B56: S53Q (designed binder)
chain: B1 chain with V49I, S53Q
- apparent Kd (screen): 0.653 nM

B57: A76C (designed binder)
chain: B1 chain with V49I, A76C
- apparent Kd (screen): 0.539 nM

B58: A106T (designed binder)
chain: B1 chain with V49I, A106T
- apparent Kd (screen): 1.05 nM

B59: L82N (designed binder)
chain: B1 chain with V49I, L82N
- apparent Kd (screen): 1.69 nM
